Source: patent publication US20110053851A1

Target: human FXa (human) (UniProt P00742)
Test: cell-based or functional assay

Chain of UniProt P00742 (P00742 41-488 limits assumed): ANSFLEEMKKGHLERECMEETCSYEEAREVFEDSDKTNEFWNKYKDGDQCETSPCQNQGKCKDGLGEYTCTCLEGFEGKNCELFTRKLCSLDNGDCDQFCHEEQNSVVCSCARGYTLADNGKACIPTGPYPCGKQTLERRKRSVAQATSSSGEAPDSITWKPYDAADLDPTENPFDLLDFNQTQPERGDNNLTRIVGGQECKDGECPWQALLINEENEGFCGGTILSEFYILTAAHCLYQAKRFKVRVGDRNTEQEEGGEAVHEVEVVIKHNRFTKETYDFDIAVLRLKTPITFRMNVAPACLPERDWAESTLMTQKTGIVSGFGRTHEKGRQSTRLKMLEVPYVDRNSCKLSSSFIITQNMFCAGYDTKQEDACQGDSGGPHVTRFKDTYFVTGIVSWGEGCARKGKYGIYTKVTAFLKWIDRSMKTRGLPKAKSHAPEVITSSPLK

Q: Which results are given for P. textilis snake venom FV?
A: CT (ave) (sec), citrated plasma; Fva 10 (1/10), PL 50, Ca 50: 23.7 s; CT (ave) (sec), citrated plasma; Fva 10 (1/100), PL 50, Ca 50: 54.7 s; CT (ave) (sec), citrated plasma; Fva 25 (1/10), PL 50, Ca 50: 19.7 s; CT (ave) (sec), citrated plasma; Fva 25 (1/100), PL 50, Ca 50: 41 s; CT (ave) (sec), citrated plasma; Fva 50 (1/10), PL 0, Ca 50: 67.5 s; CT (ave) (sec), citrated plasma; Fva 50 (1/10), PL 50, Ca 50: 18 s; CT (ave) (sec), citrated plasma; Fva 50 (1/100), PL 0, Ca 50: 90.8 s; CT (ave) (sec), citrated plasma; Fva 50 (1/100), PL 50, Ca 50: 31.6 s; CT (ave) (sec), citrated plasma; Fva 50 (1/1000), PL 0, Ca 50: > 300 s; CT (ave) (sec), citrated plasma; Fva 50 (1/1000), PL 50, Ca 50: 68.7 s; CT (ave) (sec), citrated plasma; Fva (A280 = 1.080) 10, PL 50, Ca 50: 15 s; CT (ave) (sec), citrated plasma; Fva (A280 = 1.080) 25, PL 50, Ca 50: 13.6 s; CT (ave) (sec), citrated plasma; Fva (A280 = 1.080) 50, PL 0, Ca 50: 54.3 s; CT (ave) (sec), citrated plasma; Fva (A280 = 1.080) 50, PL 50, Ca 0: > 300 s; CT (ave) (sec), citrated plasma; Fva (A280 = 1.080) 50, PL 50, Ca 50: 12.7 s; Citrated Plasma Clotting Time (Sec) at FV 0.7 nM (0 nM FV: 151): 69 s; Citrated Plasma Clotting Time (Sec) at FV 7 nM (0 nM FV: 151): 32 s; Citrated Plasma Clotting Time (Sec) at FV 70 nM (0 nM FV: 151): 18 s; Citrated Plasma Clotting Time (Sec) at FV 700 nM (0 nM FV: 151): 13 s; Clotting time (sec) (1), citrated plasma; Fva 10 (1/10), PL 50, Ca 50: 24.1 s; Clotting time (sec) (1), citrated plasma; Fva 10 (1/100), PL 50, Ca 50: 53.3 s; Clotting time (sec) (1), citrated plasma; Fva 25 (1/10), PL 50, Ca 50: 19.6 s; Clotting time (sec) (1), citrated plasma; Fva 25 (1/100), PL 50, Ca 50: 39.5 s; Clotting time (sec) (1), citrated plasma; Fva 50 (1/10), PL 0, Ca 50: 68.9 s; Clotting time (sec) (1), citrated plasma; Fva 50 (1/10), PL 50, Ca 50: 18.3 s; Clotting time (sec) (1), citrated plasma; Fva 50 (1/100), PL 0, Ca 50: 84.3 s; Clotting time (sec) (1), citrated plasma; Fva 50 (1/100), PL 50, Ca 50: 32.3 s; Clotting time (sec) (1), citrated plasma; Fva 50 (1/1000), PL 0, Ca 50: > 300 s; Clotting time (sec) (1), citrated plasma; Fva 50 (1/1000), PL 50, Ca 50: 69.7 s; Clotting time (sec) (1), citrated plasma; Fva (A280 = 1.080) 10, PL 50, Ca 50: 15.2 s; Clotting time (sec) (1), citrated plasma; Fva (A280 = 1.080) 25, PL 50, Ca 50: 13.3 s; Clotting time (sec) (1), citrated plasma; Fva (A280 = 1.080) 50, PL 0, Ca 50: 54.1 s; Clotting time (sec) (1), citrated plasma; Fva (A280 = 1.080) 50, PL 50, Ca 0: > 300 s; Clotting time (sec) (1), citrated plasma; Fva (A280 = 1.080) 50, PL 50, Ca 50: 12.6 s; Clotting time (sec) (2), citrated plasma; Fva 10 (1/10), PL 50, Ca 50: 23.4 s; Clotting time (sec) (2), citrated plasma; Fva 10 (1/100), PL 50, Ca 50: 56 s; Clotting time (sec) (2), citrated plasma; Fva 25 (1/10), PL 50, Ca 50: 19.8 s; Clotting time (sec) (2), citrated plasma; Fva 25 (1/100), PL 50, Ca 50: 42.5 s; Clotting time (sec) (2), citrated plasma; Fva 50 (1/10), PL 0, Ca 50: 67 s; Clotting time (sec) (2), citrated plasma; Fva 50 (1/10), PL 50, Ca 50: 17.6 s; Clotting time (sec) (2), citrated plasma; Fva 50 (1/100), PL 0, Ca 50: 97.4 s; Clotting time (sec) (2), citrated plasma; Fva 50 (1/100), PL 50, Ca 50: 31 s; Clotting time (sec) (2), citrated plasma; Fva 50 (1/1000), PL 0, Ca 50: > 300 s; Clotting time (sec) (2), citrated plasma; Fva 50 (1/1000), PL 50, Ca 50: 67.7 s; Clotting time (sec) (2), citrated plasma; Fva (A280 = 1.080) 10, PL 50, Ca 50: 14.8 s; Clotting time (sec) (2), citrated plasma; Fva (A280 = 1.080) 25, PL 50, Ca 50: 13.8 s; Clotting time (sec) (2), citrated plasma; Fva (A280 = 1.080) 50, PL 0, Ca 50: 54.5 s; Clotting time (sec) (2), citrated plasma; Fva (A280 = 1.080) 50, PL 50, Ca 0: > 300 s; Clotting time (sec) (2), citrated plasma; Fva (A280 = 1.080) 50, PL 50, Ca 50: 12.8 s; clotting time of re-calcified citrated whole blood with 20 nM APC and 280 nM snake venom FV (no APC: 505 seconds; APC alone: 1333 seconds): 127 s
